Test results: patent US20220273679A1, “METHODS AND COMPOSITIONS FOR TREATING AND PREVENTING DAMAGE TO SKIN” (New York Society for the Relief of the Ruptured and …, priority 2019, published 2022)

Assays:
ADAM17 = details: mouse embryonic fibroblasts; cited from earlier work
LC-Ad17 mice = assay: UVR-induced keratinocyte apoptosis and monocyte numbers in ears of LC-Ad17 mice; assay type: in vivo, mouse; details: applied on ears prior to UVR, 24 hours
Method: FIGS. 5A-5H. LC-derived ADAM17 limits UVR-induced keratinocyte apoptosis and skin injury. (5A-5D) Graphs showing WT and LC-Ad17 mice were treated with UVR and analyzed at indicated time points. (5A) Graph showing activated caspase-3+ keratinocytes (n=3-5 mice). […] (5C) Graph showing epidermal thickness (n=3-4 mice). (5D) Graph showing quantification of epidermal permeability (n=3-5 mice). (5E,5F) Vehicle or HB-EGF was applied on the ears prior to UVR exposure (n=3-4 mice). (5E) Graph showing activated caspase-3+ keratinocytes. (5F) Graphs showing absolute (left) and normalized (right) monocyte numbers. (5G,5H) Effect of LC Adam17 deletion or ADAM17 blockade on keratinocyte survival in vitro. Murine keratinocytes with LCs from indicated mice (5G) and human keratinocytes with control-IgG or anti-ADAM17-treated LCs (5H) were exposed to UVR and examined at 24 hours (n=3 mice or 4 human donors). Data are from 3 (5E-5G), 4 (5A), 2 (5H), 5 (5B), and 1 (5C,5D) independent experiments. Bars represent means (5A,5B,5D-H) or medians (5C).

Langerin-DTA mice = assay: UVR-induced keratinocyte apoptosis and monocyte accumulation in ears of Langerin-DTA mice; details: 2 ug per ear 15 minutes prior to UVR, 24 hours after UVR
Method: (3C,3D) Mouse ears were treated with vehicle or HB-EGF prior to UVR and examined 24 hours after UVR (n=3-4 mice). (3C) Graph of activated caspase-3+ keratinocytes. (3D) Graph of absolute (left) and normalized (right) monocyte numbers. […] Bars represent means. Error bars depict standard deviations.
For indicated 24 hour experiments, HB-EGF (2 ug; R&D Systems) dissolved in dimethyl sulfoxide (DMSO) was applied to each ear 15 minutes prior to UVR exposure.
For immunofluorescence staining of murine skin, frozen unfixed mouse skin was sectioned, fixed with cold acetone for 10 minutes, and stained as indicated (15). Epidermal activated caspase-3+ cells per high powered field (40× magnification) were quantified by a blinded observer using ImageJ software (NIH) and classified as activated caspase-3+ keratinocytes (Langerin− and CD3−), LCs (Langerin+), or T cells (CD3+).

MRL-Faslpr mice = assay: Multi-day UVR lesion development in MRL-Faslpr SLE model mice with topical treatment; assay type: in vivo, mouse
Method: FIGS. 8A-8C. Topical EGFR ligand reduces photosensitivity. (8A) Experimental scheme for (B-C) (n=4 mice). MRL-Faslpr mice ears and back skin were topically treated with HB-EGF for 2 days before and on the first day of UVR exposure and examined 24 hours after the final exposure. Ears were treated with Control plus vehicle, UVR plus vehicle, UVR+ HB-EGF and MRL-MpJ UVR+ vehicle. The MRL-MpJ ear represents a non-SLE control. (8C) Graph of ear histopathology scores. (8C) Graph of absolute monocyte numbers. Data are from 3 independent experiments. Bars represent means.
FIGS. 18A-18B. EGFR ligand application reduces the severity of UVR-induced skin lesions and lymph node B cell responses in SLE model mice. Mice were treated with HB-EGF (n=4 mice). Lesional areas are seen in magnified images of back lesions (not shown). Neutrophil-dominant infiltrate and ulceration are seen in H&E images of ear skin (not shown). (18A, 18B) Germinal center B cell (18A) and plasma cell (18B) numbers in skin draining lymph nodes (auricular and inguinal) normalized to mice treated with UVR+ vehicle. Each symbol represents either inguinal or auricular lymph nodes from multiple mice. Data from 2 independent experiments. Bars represent means.
The remaining hair on the back skin of the mice was removed using Nair and photographs were taken. The total back area and lesional area (skin affected by erythema, scaliness, crustiness, or epidermal erosion) was measured by a blinded observer using ImageJ software and skin lesions were quantified as percent of back area.
Skin histopathology scoring: A blinded expert dermatopathologist scored H&E stained sections based on dermal inflammation (0-3).

[1] = MRL-Faslpr mice, topical, multi-day UVR
[2] = MRL/lpr lupus model, topical application

Molecule | ADAM17 activation (ADAM17) | UVR-induced skin inflammation (monocyte numbers) (LC-Ad17 mice) | increased UVR-induced keratinocyte apoptosis (LC-Ad17 mice) | UVR-induced apoptotic keratinocyte accumulation (Langerin-DTA mice) | UVR-induced monocyte accumulation (Langerin-DTA mice) | severity of UVR-induced skin lesions (MRL-Faslpr mice; MRL-Faslpr mice, topical on ears and back for three consecutive days, 6 days UVR) | germinal center B cells in skin-draining lymph nodes (MRL-Faslpr mice; [1]) | plasma cells in skin-draining lymph nodes (MRL-Faslpr mice; [1]) | monocyte accumulation (MRL-Faslpr mice; MRL-Faslpr mice, topical, multi-day UVR, 24 hours after final exposure) | photosensitivity (MRL-Faslpr mice; [2]) | skin-draining lymph node (B cell) responses (MRL-Faslpr mice; [2]) | skin-draining lymph node (B cell) responses (MRL-Faslpr mice; MRL/lpr lupus model, topical application, listed as Hb-EGF)
EGF: EGFR-ligand cited as stimulating ADAM17 (protein, UniProt P01133 23-1207, looked up, Pro-epidermal growth factor, EGFR-ligand cited as stimulating ADAM17) Pro-epidermal growth factor: PQHWSCPEGTLAGNGNSTCVGPAPFLIFSHGNSIFRIDTEGTNYEQLVVDAGVSVIMDFHYNEKRIYWVDLERQLLQRVFLNGSRQERVCNIEKNVSGMAINWINEEVIWSNQQEGIITVTDMKGNNSHILLSALKYPANVAVDPVERFIFWSSEVAGSLYRADLDGVGVKALLETSEKITAVSLDVLDKRLFWIQYNREGSNSLICSCDYDGGSVHISKHPTQHNLFAMSLFGDRIFYSTWKMKTIWIANKHTGKDMVRINLHSSFVPLGELKVVHPLAQPKAEDDTWEPEQKLCKLRKGNCSSTVCGQDLQSHLCMCAEGYALSRDRKYCEDVNECAFWNHGCTLGCKNTPGSYYCTCPVGFVLLPDGKRCHQLVSCPRNVSECSHDCVLTSEGPLCFCPEGSVLERDGKTCSGCSSPDNGGCSQLCVPLSPVSWECDCFPGYDLQLDEKSCAASGPQPFLLFANSQDIRHMHFDGTDYGTLLSQQMGMVYALDHDPVENKIYFAHTALKWIERANMDGSQRERLIEEGVDVPEGLAVDWIGRRFYWTDRGKSLIGRSDLNGKRSKIITKENISQPRGIAVHPMAKRLFWTDTGINPRIESSSLQGLGRLVIASSDLIWPSGITIDFLTDKLYWCDAKQSVIEMANLDGSKRRRLTQNDVGHPFAVAVFEDYVWFSDWAMPSVMRVNKRTGKDRVRLQGSMLKPSSLVVVHPLAKPGADPCLYQNGGCEHICKKRLGTAWCSCREGFMKASDGKTCLALDGHQLLAGGEVDLKNQVTPLDILSKTRVSEDNITESQHMLVAEIMVSDQDDCAPVGCSMYARCISEGEDATCQCLKGFAGDGKLCSDIDECEMGVPVCPPASSKCINTEGGYVCRCSEGYQGDGIHCLDIDECQLGEHSCGENASCTNTEGGYTCMCAGRLSEPGLICPDSTPPPHLREDDHHYSVRNSDSECPLSHDGYCLHDGVCMYIEALDKYACNCVVGYIGERCQYRDLKWWELRHAGHGQQQKVIVVAVCVVVLVMLLLLSLWGAHYYRTQKLLSKNPKNPYEESSRDVRSRRPADTEDGMSSCPQPWFVVIKEHQDLKNGGQPVAGEDGQAADGSMQPTSWRQEPQLCGMGTEQGCWIPVSSDKGSCPQVMERSFHMPSYGTQTLEGGVEKPHSLLSANPLWQQRALDPPHQMELTQ | activated |  |  |  |  |  |  |  |  |  |  | 
heparin-binding EGF-like growth factor (protein) DLQEADLDLLRVTLSSKPQALATPNKEEHGKRKKKGKGLGKKRDPCLRKYKDFCIHGECKYVKELRAPSCICHPGYHGERCHGLSL |  | dampened | dampened | reduced | reduced | reduced the severity | reduced | reduced | reduced | reduces | reduction | reduces
